These are literature values, as cited in patent US4786501A, “Cylindrical implants for the controlled release of growth hormones” (International Minerals & Chemical Corp., priority 1985, dated 1988).

One data set concerns cows. The note with it: field trials, Machlin 1973.
A further data set concerns young swine. The note with it: field trials.

B1: BGH: bovine growth hormone purified from pituitary glands, protein containing 191 amino acid residues (protein, UniProt P01246 27-217, looked up)
Somatotropin: AFPAMSLSGLFANAVLRAQHLHQLAADTFKEFERTYIPEGQRYSIQNTQVAFCFSETIPAPTGKNEAQQKSDLELLRISLLLIQSWLGPLQFLSRVFTNSLVFGTSDRVYEKLKDLEEGILALMRELEDGTPRAGQILKQTYDKFDTNMRSDDALLKNYGLLSCFRKDLHKTETYLRVMKCRRFGEASCAF
Consider B1, for which, in the data set on cows, the feed-to-milk conversion result is “improved feed-to-milk conversion” and the milk production entry is recorded as “increased milk production”.

B2: native PGH: native porcine growth hormone, protein containing 191 amino acid residues (protein, UniProt P01248 27-216, looked up)
Somatotropin: FPAMPLSSLFANAVLRAQHLHQLAADTYKEFERAYIPEGQRYSIQNAQAAFCFSETIPAPTGKDEAQQRSDVELLRFSLLLIQSWLGPVQFLSRVFTNSLVFGTSDRVYEKLKDLEEGIQALMRELEDGSPRAGQILKQTYDKFDTNLRSDDALLKNYGLLSCFKKDLHKAETYLRVMKCRRFVESSCAF
In the case of B2, in the data set on young swine, the growth rates entry is “increased growth rates”.
